According to PMC6908751 (Cell host & microbe, 2019):

Molecular target: Sh2 N9 NA ectodomain plus stalk with His6-tag (tetramer) (influenza A virus A/Shanghai/02/2013 …)
Assay: cryo-EM structure

B1: human anti-N9 antibody NA-63 Fab (Fab, V domains shown)
VH: EVQLVESGGGLVQPGGSLRLSCAASGFTFSSYWMSWVRQAPGKGLDWVANIKQDGSEKYYVDSVKGRFTISRHNAKNSLYLQMNSLRAEDTAVYYCASSTAAEFFDYWGQGTLVTVSS
VL: DIVMTQSPSSLSASVGDRVTITCRASQSISTYLNWYQQKPGKAPKLLIYAASSLQGGVPSRFSGSGSGTDFTLTISSLQPEDFATYYCQQSYSTPLYTFGQGTKLEIK
binding result: binds

B2: human anti-N9 antibody NA-80 Fab (Fab, V domains shown)
VH: QVQLVQSGAEVKRPGASVKVSCKASGYTFISYGISWVRQAPGQGLEWMGWISAYNGNTNYAQNLQGRVTMTTDTSTSTAYMELRSLRSDDTAVYYCARVIPGTAVDYFDYWGQGTLVTVSS
VL: DIVMTQSPSSLSASVGDRVTISCRASQSISSYLNWYQQKPGKAPKLLIYAASSLQSGVPSRFSGSASGTDFTLTISSLQPEDFATYYCQQSYSAPFTFGPGTKVDIE
stoichiometry N: 1 Fab per NA protomer

B3: human anti-N9 antibody NA-22 Fab (Fab, V domains shown)
VH: QVQLVESGGGVVQPGRSLRLSCAASGFTFNNYGMHWVRQAPGKGLEWVAVISYDGSNKYYADSVKGRFTISRDNSKNTLYLQMNSLRAEDTAVYYCAKDKRFITMILVGPFDYWGQGTLVTVSS
VL: QSVLTQPASVSGSPGQSITISCTGTSSDVGGYNYVSWHQQHPGKAPKLMIYDVSNRPSGVSNRFSGSKSGNTASLTISGLQTEDEADYYCSSYTSSTTNVFGTGTKVTVL
stoichiometry N: 4 Fabs per NA tetramer

B4: human anti-N9 antibody NA-73 Fab (Fab, V domains shown)
VH: QVQLEESGPGLVKPSETLSLTCTVSGYTISSGYYWGWIRQPPGKGLEWIGCNNHRGSSYYNPSLKSRVIISVDTTKNKFSLKLSSVTAADTAVYYCARDPSFWSSTSRTSPYYYGMDVWGQGTLVTVSS
VL: not shown
stoichiometry N: 1 Fab per NA protomer
